Laboratory results from patent US20210388087A1 (Chugai, published 2021).
Residue numbers refer to the chain shown, from its start. Where no end group is shown, it is not given here.

What was measured:
[1] = molecular target: human CD137 expressed on cells (human, UniProt Q07011 24-255); experiment: cell-based or functional assay
[2] = molecular target: T1, Extracellular domain (24-186) of human CD137 (human, UniProt Q07011 24-186); experiment: complex formation, gel filtration
T1 construct: Fc cleaved off; also called hCD137; CD137 extracellular domain

Human CD3eg linker [3] = molecular target: T2, Human CD3eg linker (human); experiment: SPR (Biacore T200), 37 degrees C, antibody captured by anti-human Fc on CM4 chip, recombinant human CD3 as analyte, 1:1 model
T2 construct: also called recombinant human CD3
T2 chain: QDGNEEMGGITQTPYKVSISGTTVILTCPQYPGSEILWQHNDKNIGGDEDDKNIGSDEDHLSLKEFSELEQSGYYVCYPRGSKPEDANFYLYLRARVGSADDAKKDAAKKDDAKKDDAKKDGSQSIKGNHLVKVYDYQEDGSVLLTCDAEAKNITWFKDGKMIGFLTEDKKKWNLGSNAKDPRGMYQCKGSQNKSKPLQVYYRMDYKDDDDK

Human CD137 ECD [4] = molecular target: T3, Human CD137 ECD (human); experiment: SPR (Biacore T200), 37 degrees C, antibody captured by anti-human Fc on CM4 chip, recombinant human CD137 as analyte, 1:1 model
T3 construct: also called recombinant human CD137

Human CD137 ECD [5] = molecular target: T3, Human CD137 ECD; experiment: SPR (Biacore T200), 37 degrees C, antibody captured by anti-human Fc on CM4 chip, recombinant human CD137 as analyte, 1:1 model; 37 degrees C
Human CD3eg linker [6] = molecular target: T4, Human CD3eg linker (human); experiment: SPR Biacore T200, 37 C, Ab captured on anti-human Fc, antigen as analyte
T4 construct: Single chain: CD3 epsilon and gamma subunits joined by a 29-mer linker, Flag-tag at the C-terminus; also called recombinant human CD3
T4 chain: T2 chain

Human CD137 ECD [7] = molecular target: T5, Human CD137 ECD (human); experiment: as above
T5 construct: also called human CD137 extracellular domain; recombinant human CD137

[8] = molecular target: T6, biotin-labeled cynomolgus monkey CD137 fused to human IgG1 Fc fragment (cynomolgus monkey; human, UniProt Q07011 24-186, limits assumed, biotin-labeled); experiment: ELISA on streptavidin beads
T6 construct: also called cyno CD137-Fc; not shown: human IgG1 Fc fragment
T6 chain: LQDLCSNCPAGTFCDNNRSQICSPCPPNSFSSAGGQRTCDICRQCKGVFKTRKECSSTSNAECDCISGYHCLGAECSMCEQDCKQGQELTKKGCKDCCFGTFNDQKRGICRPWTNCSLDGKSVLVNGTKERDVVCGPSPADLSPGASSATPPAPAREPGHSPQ

[9] = molecular target: T7, biotin-labeled human CD137 fused to human IgG1 Fc fragment (human, UniProt Q07011 24-186, biotin-labeled); experiment: bead ELISA, 1250 ng IgG, S/N over biotin-human Fc
T7 construct: also called human CD137-Fc; biotin-human CD137-Fc; not shown: human IgG1 Fc fragment

human CD137-Fc [10] = molecular target: T8, human CD137-Fc (human, biotin-labeled); experiment: bead ELISA, IgG on biotinylated antigen, luminescence;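 further: biotinylated antigen captured on streptavidin magnetic beads, then incubated with purified IgG at 50 ng/µL for 1 h at room temperature before detection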
T8 construct: if 90 already holds the Fc, drop the second piece; also called biotin-labeled human CD137 fused to human IgG1 Fc fragment; biotin-human CD137-Fc; not shown: human IgG1 Fc fragment

cyno CD137-Fc = molecular target: T9, cyno CD137-Fc (cynomolgus monkey; human, limits assumed, biotin-labeled); experiment: as above
T9 construct: whole entry 92 named; also called biotin-labeled cynomolgus monkey CD137 fused to human IgG1 Fc fragment; not shown: human IgG1 Fc fragment
T9 chain: T6 chain

human CD137-Fc [11] = molecular target: T8, human CD137-Fc; experiment: bead ELISA on biotin-human CD137-Fc, 0 pmol free CD3e peptide
[12] = molecular target: T10, Biotin-labeled CD3 epsilon peptide antigen (human, also: biotin-labeled, site not given here); experiment: bead ELISA, IgG on biotinylated CD3 epsilon peptide, luminescence
T10 construct: also called CD3 peptide
T10 peptide: QDGNEEMGGITQTPY

human CD137-Fc [13] = molecular target: T8, human CD137-Fc; experiment: bead ELISA on biotin-human CD137-Fc, free CD3e peptide vs free Fc
human CD137-Fc [14] = molecular target: T8, human CD137-Fc; experiment: bead ELISA on biotin-human CD137-Fc, 125 vs 0 pmol free CD3e peptide;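 further: target captured on streptavidin-coated magnetic beads, signal read as fluorescence 2 min after adding APS-5 substrate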
human CD137-Fc [15] = molecular target: T8, human CD137-Fc; experiment: bead ELISA on biotin-human CD137-Fc with 62.5 pmol free CD3e peptide as competitor
human CD137-Fc [16] = molecular target: T8, human CD137-Fc; experiment: bead ELISA on biotin-human CD137-Fc with 62.5 pmol free human Fc (control competitor)
human CD137-Fc [17] = molecular target: T8, human CD137-Fc; experiment: bead ELISA on biotin-human CD137-Fc with 125 pmol/well free CD3e peptide as competitor;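 further: Streptavidin-coated magnetic beads in blocking buffer as the capture surface, well signal read as fluorescence 2 min after adding APS-5 substrate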
[18] = molecular target: T7, biotin-labeled human CD137 fused to …; experiment: ELISA on streptavidin beads, purified IgG

B1: GPC3/CD137×CD3 trispecific antibody (other)
VH 1: QVQLQQWGAGLLKPSETLSLTCAVYGGSFSGYYWSWIRQSPEKGLEWIGEINHGGYVTYNPSLESRVTISVDTSKNQFSLKLSSVTAADTAVYYCARDYGPGNYDWYFDLWGRGTLVTVSS
VL 1: EIVLTQSPATLSLSPGERATLSCRASQSVSSYLAWYQQKPGQAPRLLIYDASNRATGIPARFSGSGSGTDFTLTISSLEPEDFAVYYCQQRSNWPPALTFGGGTKVEIK
VH 2: QVQLVESGGGLVQPGRSLRLSCAASGFTFSNAWMHWVRQAPGKGLEWVAQIKDRANSYNTYYAESVKGRFTISRDDSKNSIYLQMNSLKTEDTAVYYCRYVHYTTYAGSSFSYGVDAWGQGTTVTVSS
VL 2: DIVMTQSPLSLPVTPGEPASISCRSSQPLVHSNRNTYLHWYQQKPGQAPRLLIYKVSNRFSGVPDRFSGSGSGTDFTLKISRVEAEDVGVYYCGQGTQVPYTFGQGTKLEIK
VH 3: QVQLVQSGAEVKKPGASVTVSCKASGYTFTDYEMHWIRQPPGEGLEWIGAIDGPTPDTAYSEKFKGRVTLTADKSTSTAYMELSSLTSEDTAVYYCTRFYSYTYWGQGTLVTVSS
VL 3: B1 VL 2
B1 was tested, and the “Luminescence against CD137 positive cells relative to that against GPC3 positive cells, 1 nM” value [1] was roughly 107% and the “Luminescence against CD137 positive cells relative to that against GPC3 positive cells, 10 nM” value [1] was roughly 128%.

B2: H0868L0581 Fab (Fab, V domains shown)
VH: QVQLVESGGGLVQPGRSLRLSCAASGFKFSNVWMHWVRQAPGKGLEWVAQIKDKYNAYAAYYAPSVKGRFTISRDDSKNSIYLQMNSLKTEDTAVYYCHYVHYASASTLLPAFGVDAWGQGTTVTVSS
VL: B1 VL 2 with R24Q, S25P, P28E, L29V, S32M, S61P, G94A, Q98S, V99H, Y101F
notes: Fab made by limited Lys-C digestion of the bivalent antibody; also called H0868L581; Fab fragment of H0868L0581
B2: binds [2].

B3: GPC3/CD137 × CD3 trispecific antibody (antibody, V domains shown)
VH 1: B1 VH 1
VL 1: B1 VL 1
VH 2: B1 VH 2
VL 2: B1 VL 2
VH 3: B1 VH 3
VL 3: B1 VL 2
notes: Trispecific mAb AB made by Fab-arm exchange from mAb A (CrossMab, two Fv per arm: Fv A1 and Fv A2) and mAb B (conventional IgG, Fv B); Fc gamma R-silent, deglycosylated Fc; also called GPC3/CD137xCD3
With B3 the Kd (Human CD3eg linker [3]) was 19.7 nM, the koff (Human CD3eg linker [3]) was 0.00161 s⁻¹ and the kon (Human CD3eg linker [3]) was 81800 M⁻¹ s⁻¹. It also gave a Kd (Human CD137 ECD [4]) of 37.7 nM, a koff (Human CD137 ECD [4]) of 0.0206 s⁻¹ and a kon (Human CD137 ECD [5]) of 547000 M⁻¹ s⁻¹.

B4: GPC3/CD137xCD3 (bispecific antibody, V domains shown)
VH 1: B1 VH 1
VL 1: B1 VL 1
VH 2: B1 VH 2
VL 2: B1 VL 2
VH 3: B1 VH 3
VL 3: B1 VL 2
notes: Fc gamma R silent Fc; also called GPC3/CD137 x CD3 trispecific antibody (2+1)
With B4 the Kd (Human CD3eg linker [6]) was 19.7 nM, the koff (Human CD3eg linker [6]) was 0.00161 s⁻¹ and the kon (Human CD3eg linker [6]) was 81800 M⁻¹ s⁻¹. The Kd (Human CD137 ECD [7]) was 37.7 nM, the koff (Human CD137 ECD [7]) was 0.0206 s⁻¹ and the kon (Human CD137 ECD [7]) was 547000 M⁻¹ s⁻¹.

B5: dBBDu126 (antibody, human IgG1, V domains shown)
VH: QVQLVESGGGLVQPGRSLRLSCAASGFTFSIAWMHWVRQAPGKGLEWVAQIKDRVNAYEAYYAPSVKGRFTISRDDSKNSIYLQMNSLKTEDTAVYYCRYVHYASYYDLLGYGGVDAWGQGTTVTVSS
VL: B1 VL 2 with P28S
notes: human IgG1; GLS3000 light chain; also called DADU01_3 #001; DADU01_3_#001
B5: no binding (tested: 25 micro L of 50 ng/micro L purified IgG) [8]; binds [9].

B6: DXDU01_3#051 (antibody, V domains shown)
VH: QVQLVESGGGLVQPGRSLRLSCAASGFTFSNAWMHWVRQAPGKGLEWVAQIKDRGQQYNAYYAPSVKGRFTISRDDSKNSIYLQMNSLKTEDTAVYYCHYVHYASASSVLPGYGVDAWGQGTTVTVSS
VL: B1 VL 2 with P28S
notes: Human IgG1; light chain GLS3000 (kappa); also called dBBDu127
In the case of B6, the RLU (human CD137-Fc [10]) is reported as 38100 RLU, the “S/N ratio (human CD137-Fc/Fc)” value (human CD137-Fc [10]) is reported as 13.1 and the RLU (cyno CD137-Fc) is reported as 10900 RLU. For the same binder, the “S/N ratio (cyno CD137-Fc/Fc)” value (cyno CD137-Fc) was 3.73, the ELISA signal (human CD137-Fc [11]) was 3230 and the RLU [12] was 169000 RLU. The “S/N ratio (CD3 peptide/non coating)” value [12] was 145, the Signal decrease (human CD137-Fc [13]) was 91.6% and the Signal decrease (human CD137-Fc [14]) was 32%. For the same binder, the ELISA signal (human CD137-Fc [15]) was 10800, the ELISA signal (human CD137-Fc [16]) was 128000 and the ELISA signal (human CD137-Fc [17]) was 2200.

B7: DXDU01_3#094 (antibody, V domains shown)
VH: B2 VH with K28T, V32A, Y55G, S107A, T108G, L109G, A112G
VL: B1 VL 2 with P28S
notes: Human IgG1; light chain GLS3000 (kappa); also called dBBDu121
With B7 the RLU (human CD137-Fc [10]) was 24200 RLU, the “S/N ratio (human CD137-Fc/Fc)” value (human CD137-Fc [10]) was 10.2 and the RLU (cyno CD137-Fc) was 19100 RLU. The “S/N ratio (cyno CD137-Fc/Fc)” value (cyno CD137-Fc) was 8.09, the ELISA signal (human CD137-Fc [11]) was 3610 and the RLU [12] was 165000 RLU. The “S/N ratio (CD3 peptide/non coating)” value [12] was 141, the Signal decrease (human CD137-Fc [13]) was 91.1% and the Signal decrease (human CD137-Fc [14]) was 49.4%. For the same binder, the ELISA signal (human CD137-Fc [15]) was 9660, the ELISA signal (human CD137-Fc [16]) was 108000 and the ELISA signal (human CD137-Fc [17]) was 1830.

B8: DADU01_3#001 (antibody, V domains shown)
VH: B5 VH
VL: B1 VL 2 with P28S
notes: Human IgG1; light chain GLS3000 (kappa); also called dBBDu126; dBBDu_126
With B8 the RLU (human CD137-Fc [10]) was 95300 RLU, the “S/N ratio (human CD137-Fc/Fc)” value (human CD137-Fc [10]) was 54.1 and the RLU (cyno CD137-Fc) was 1210 RLU. For the same binder, the “S/N ratio (cyno CD137-Fc/Fc)” value (cyno CD137-Fc) was 0.687, the ELISA signal (human CD137-Fc [11]) was 116000 and the RLU [12] was 198000 RLU. The “S/N ratio (CD3 peptide/non coating)” value [12] was 146, the Signal decrease (human CD137-Fc [13]) was 81.3% and the Signal decrease (human CD137-Fc [14]) was 97.8%. For the same binder, the ELISA signal (human CD137-Fc [15]) was 15100, the ELISA signal (human CD137-Fc [16]) was 81000 and the ELISA signal (human CD137-Fc [17]) was 2610.

B9: DXDU01_3#019 (antibody, V domains shown)
VH: B5 VH with R54K, A57G, E59T, P64E, S105A, L109V
VL: B1 VL 2 with P28S
notes: Human IgG1; light chain GLS3000 (kappa); also called dBBDu125
In the case of B9, the RLU (human CD137-Fc [10]) is reported as 77800 RLU, the “S/N ratio (human CD137-Fc/Fc)” value (human CD137-Fc [10]) is reported as 23.8 and the RLU (cyno CD137-Fc) is reported as 5090 RLU. For the same binder, the “S/N ratio (cyno CD137-Fc/Fc)” value (cyno CD137-Fc) was 1.56, the ELISA signal (human CD137-Fc [11]) was 61400 and the RLU [12] was 191000 RLU. For the same binder, the “S/N ratio (CD3 peptide/non coating)” value [12] was 161, the Signal decrease (human CD137-Fc [13]) was 92.5% and the Signal decrease (human CD137-Fc [14]) was 96.7%. The ELISA signal (human CD137-Fc [15]) was 12800, the ELISA signal (human CD137-Fc [16]) was 172000 and the ELISA signal (human CD137-Fc [17]) was 2060.

B10: dBBDu127 (antibody, human IgG1, V domains shown)
VH: B6 VH
VL: B1 VL 2 with P28S
notes: human IgG1; GLS3000 light chain; also called DXDU01_3 #051; DXDU01_3_#051
B10: binds [18].
